# From US20210246166A1 (Bayer, published 2021)
# Bridge positions count the residues as written; N and C are the ends. Square brackets hold non-standard residues; d marks the D form. Ends that are not written are not given here. Phe(3-COOH) = N[C@@H](Cc1cccc(C(=O)O)c1)C(=O)O; Oic = O=C(O)[C@@H]1C[C@@H]2CCCC[C@@H]2N1; PEG8 = NCCOCCOCCOCCOCCOCCOCCOCCOCCC(=O)O; NMeI = CC[C@H](C)[C@H](NC)C(=O)O; tBuAla = CC(C)(C)C[C@H](N)C(=O)O; Pen = CC(C)(S)[C@H](N)C(=O)O; 4Amb = NCc1ccc(C(=O)O)cc1; NMeC = CN[C@@H](CS)C(=O)O; Pip = O=C(O)[C@@H]1CCCCN1; NMeA = CN[C@@H](C)C(=O)O; GABA = NCCCC(=O)O; Sar = CNCC(=O)O
# T1: Recombinant human MASP1 enzyme (fragment corresponding to amino acids 297-699, C-terminal His Tag) (human, UniProt P48740 297-699)
# T1 sequence: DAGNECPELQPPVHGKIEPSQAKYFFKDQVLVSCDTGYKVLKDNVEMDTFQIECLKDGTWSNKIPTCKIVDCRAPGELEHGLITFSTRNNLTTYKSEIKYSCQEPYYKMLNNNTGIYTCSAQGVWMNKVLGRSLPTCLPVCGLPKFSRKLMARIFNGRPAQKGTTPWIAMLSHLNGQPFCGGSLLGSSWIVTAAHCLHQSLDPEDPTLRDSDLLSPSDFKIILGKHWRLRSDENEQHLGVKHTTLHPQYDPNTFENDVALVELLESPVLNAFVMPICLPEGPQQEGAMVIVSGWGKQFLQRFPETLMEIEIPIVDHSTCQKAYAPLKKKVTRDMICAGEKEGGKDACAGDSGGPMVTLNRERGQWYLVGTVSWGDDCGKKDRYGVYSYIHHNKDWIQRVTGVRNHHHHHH
# T2: recombinant human MASP1 active protease (amino acids 297-699, C-terminal His Tag) (human, UniProt P48740 297-699)
# T2 sequence: T1 sequence
# B1: HIC+SRS-((tBu)A)-PPI-((N-Me)C)+I-NH2 (peptide)
# peptide: HICSRS[tBuAla]PPI[NMeC]I-NH2
# modifications: disulfide 3-11; N-terminus assumed
# SMILES: CC[C@H](C)[C@H](NC(=O)[C@@H]1CSSC[C@H](NC(=O)[C@@H](NC(=O)[C@@H](N)Cc2c[nH]cn2)[C@@H](C)CC)C(=O)N[C@@H](CO)C(=O)N[C@@H](CCCNC(=N)N)C(=O)N[C@@H](CO)C(=O)N[C@@H](CC(C)(C)C)C(=O)N2CCC[C@H]2C(=O)N2CCC[C@H]2C(=O)N[C@@H]([C@@H](C)CC)C(=O)N1C)C(N)=O
# B2: ((N-Me)G)-IC+SRSLP-(Oic)-I-(Pen)+IP-((3-Carboxy)F)-NH2 (peptide)
# peptide: [Sar]ICSRSLP[Oic]I[Pen]IP[Phe(3-COOH)]-NH2
# modifications: disulfide 3-11; N-terminus assumed
# SMILES: CC[C@H](C)[C@H](NC(=O)CNC)C(=O)N[C@H]1CSSC(C)(C)[C@@H](C(=O)N[C@H](C(=O)N2CCC[C@H]2C(=O)N[C@@H](Cc2cccc(C(=O)O)c2)C(N)=O)[C@@H](C)CC)NC(=O)[C@H]([C@@H](C)CC)NC(=O)[C@@H]2C[C@@H]3CCCC[C@@H]3N2C(=O)[C@@H]2CCCN2C(=O)[C@H](CC(C)C)NC(=O)[C@H](CO)NC(=O)[C@H](CCCNC(=N)N)NC(=O)[C@H](CO)NC1=O
# B3: Ac-IC+SRS-((tBu)A)-PPI-(Pen)+IPD-NH2 (peptide)
# peptide: Ac-ICSRS[tBuAla]PPI[Pen]IPD-NH2
# modifications: disulfide 2-10
# SMILES: CC[C@H](C)[C@H](NC(C)=O)C(=O)N[C@H]1CSSC(C)(C)[C@@H](C(=O)N[C@H](C(=O)N2CCC[C@H]2C(=O)N[C@@H](CC(=O)O)C(N)=O)[C@@H](C)CC)NC(=O)[C@H]([C@@H](C)CC)NC(=O)[C@@H]2CCCN2C(=O)[C@@H]2CCCN2C(=O)[C@H](CC(C)(C)C)NC(=O)[C@H](CO)NC(=O)[C@H](CCCNC(=N)N)NC(=O)[C@H](CO)NC1=O
# B4: ((N-Me)A)-IC+SRS-((tBu)A)-PPI-((N-Me)C)+IPD-NH2 (peptide)
# peptide: [NMeA]ICSRS[tBuAla]PPI[NMeC]IPD-NH2
# modifications: disulfide 3-11; N-terminus assumed
# SMILES: CC[C@H](C)[C@H](NC(=O)[C@H](C)NC)C(=O)N[C@H]1CSSC[C@@H](C(=O)N[C@H](C(=O)N2CCC[C@H]2C(=O)N[C@@H](CC(=O)O)C(N)=O)[C@@H](C)CC)N(C)C(=O)[C@H]([C@@H](C)CC)NC(=O)[C@@H]2CCCN2C(=O)[C@@H]2CCCN2C(=O)[C@H](CC(C)(C)C)NC(=O)[C@H](CO)NC(=O)[C@H](CCCNC(=N)N)NC(=O)[C@H](CO)NC1=O
# B5: ((N-Me)G)-IC+SRSLPPIC+IPD-NH2 (HCl salt) (peptide)
# peptide: [Sar]ICSRSLPPICIPD-NH2
# modifications: disulfide 3-11; also: HCl salt
# B6: aIC+SRSLP-(Oic)-I-(Pen)+IPD-OH (peptide)
# peptide: [dA]ICSRSLP[Oic]I[Pen]IPD-OH
# modifications: disulfide 3-11
# B7: AIC+SRS-((tBu)A)-P-(Oic)-I-((N-Me)C)+IPD-OH (HCl salt) (peptide)
# peptide: AICSRS[tBuAla]P[Oic]I[NMeC]IPD-OH
# modifications: disulfide 3-11; also: HCl salt
# B8: (3-Amino-2,2-dimethylpropionic acid)-IC+SRS-((tBu)A)-PPI-(Pen)+IPD-NH2 (peptide)
# peptide: [3‑Amino‑2,2‑dimethylpropionic acid]ICSRS[tBuAla]PPI[Pen]IPD-NH2
# modifications: disulfide 3-11
# B9: (2-(Morpholine)acetyl)-IC+SRS-((tBu)A)-PPI-(Pen)+IPD-NH2 (peptide)
# peptide: [2‑(Morpholine)acetyl]ICSRS[tBuAla]PPI[Pen]IPD-NH2
# modifications: disulfide 3-11
# B10: ((N-Me)G)-IC+SRSLPPIC+IPD-NH2 (peptide)
# peptide: [Sar]ICSRSLPPICIPD-NH2
# modifications: disulfide 3-11; N-terminus assumed
# SMILES: CC[C@H](C)[C@H](NC(=O)CNC)C(=O)N[C@H]1CSSC[C@@H](C(=O)N[C@H](C(=O)N2CCC[C@H]2C(=O)N[C@@H](CC(=O)O)C(N)=O)[C@@H](C)CC)NC(=O)[C@H]([C@@H](C)CC)NC(=O)[C@@H]2CCCN2C(=O)[C@@H]2CCCN2C(=O)[C@H](CC(C)C)NC(=O)[C@H](CO)NC(=O)[C@H](CCCNC(=N)N)NC(=O)[C@H](CO)NC1=O
# B11: G-((N-Me)I)-C+SRSLPPIC+IPD-NH2 (HCl salt) (peptide)
# peptide: G[NMeI]CSRSLPPICIPD-NH2
# modifications: disulfide 3-11; also: HCl salt
# B12: aIC+SRSLP-(Oic)-I-(Pen)+IPD-NH2 (peptide)
# peptide: [dA]ICSRSLP[Oic]I[Pen]IPD-NH2
# modifications: disulfide 3-11
# B13: ((N-Me)G)-IC+SRSLP-(Oic)-I-(Pen)+IP-(PEG8(28 atoms))-NH2 (peptide)
# peptide: [Sar]ICSRSLP[Oic]I[Pen]IP[PEG8]-NH2
# modifications: disulfide 3-11; N-terminus assumed
# SMILES: CC[C@H](C)[C@H](NC(=O)CNC)C(=O)N[C@H]1CSSC(C)(C)[C@@H](C(=O)N[C@H](C(=O)N2CCC[C@H]2C(=O)NCCOCCOCCOCCOCCOCCOCCOCCOCCC(N)=O)[C@@H](C)CC)NC(=O)[C@H]([C@@H](C)CC)NC(=O)[C@@H]2C[C@@H]3CCCC[C@@H]3N2C(=O)[C@@H]2CCCN2C(=O)[C@H](CC(C)C)NC(=O)[C@H](CO)NC(=O)[C@H](CCCNC(=N)N)NC(=O)[C@H](CO)NC1=O
# B14: AIC+SRSLP-(Oic)-I-((N-Me)C)+IPD-OH (peptide)
# peptide: AICSRSLP[Oic]I[NMeC]IPD-OH
# modifications: disulfide 3-11; N-terminus assumed
# SMILES: CC[C@H](C)[C@H](NC(=O)[C@H](C)N)C(=O)N[C@H]1CSSC[C@@H](C(=O)N[C@H](C(=O)N2CCC[C@H]2C(=O)N[C@@H](CC(=O)O)C(=O)O)[C@@H](C)CC)N(C)C(=O)[C@H]([C@@H](C)CC)NC(=O)[C@@H]2C[C@@H]3CCCC[C@@H]3N2C(=O)[C@@H]2CCCN2C(=O)[C@H](CC(C)C)NC(=O)[C@H](CO)NC(=O)[C@H](CCCNC(=N)N)NC(=O)[C@H](CO)NC1=O
# B15: G-((N-Me)I)-C+SRSLPPIC+IPD-NH2 (peptide)
# peptide: G[NMeI]CSRSLPPICIPD-NH2
# modifications: disulfide 3-11; N-terminus assumed
# SMILES: CC[C@H](C)[C@@H]1NC(=O)[C@@H]2CCCN2C(=O)[C@@H]2CCCN2C(=O)[C@H](CC(C)C)NC(=O)[C@H](CO)NC(=O)[C@H](CCCNC(=N)N)NC(=O)[C@H](CO)NC(=O)[C@@H](NC(=O)[C@H]([C@@H](C)CC)N(C)C(=O)CN)CSSC[C@@H](C(=O)N[C@H](C(=O)N2CCC[C@H]2C(=O)N[C@@H](CC(=O)O)C(N)=O)[C@@H](C)CC)NC1=O
# B16: (Pip)-IC+SRS-((tBu)A)-PPI-((N-Me)C)+IPD-NH2 (peptide)
# peptide: [Pip]ICSRS[tBuAla]PPI[NMeC]IPD-NH2
# modifications: disulfide 3-11; N-terminus assumed
# SMILES: CC[C@H](C)[C@H](NC(=O)[C@@H]1CCCCN1)C(=O)N[C@H]1CSSC[C@@H](C(=O)N[C@H](C(=O)N2CCC[C@H]2C(=O)N[C@@H](CC(=O)O)C(N)=O)[C@@H](C)CC)N(C)C(=O)[C@H]([C@@H](C)CC)NC(=O)[C@@H]2CCCN2C(=O)[C@@H]2CCCN2C(=O)[C@H](CC(C)(C)C)NC(=O)[C@H](CO)NC(=O)[C@H](CCCNC(=N)N)NC(=O)[C@H](CO)NC1=O
# B17: (3-Amino-3-methylbutyric acid)-IC+SRS-((tBu)A)-PPI-(Pen)+IPD-NH2 (peptide)
# peptide: [3‑Amino‑3‑methylbutyric acid]ICSRS[tBuAla]PPI[Pen]IPD-NH2
# modifications: disulfide 3-11
# B18: (Gamma-Abu)-IC+SRS-((tBu)A)-PPI-((N-Me)C)+IPD-NH2 (peptide)
# peptide: [GABA]ICSRS[tBuAla]PPI[NMeC]IPD-NH2
# modifications: disulfide 3-11; N-terminus assumed
# SMILES: CC[C@H](C)[C@H](NC(=O)CCCN)C(=O)N[C@H]1CSSC[C@@H](C(=O)N[C@H](C(=O)N2CCC[C@H]2C(=O)N[C@@H](CC(=O)O)C(N)=O)[C@@H](C)CC)N(C)C(=O)[C@H]([C@@H](C)CC)NC(=O)[C@@H]2CCCN2C(=O)[C@@H]2CCCN2C(=O)[C@H](CC(C)(C)C)NC(=O)[C@H](CO)NC(=O)[C@H](CCCNC(=N)N)NC(=O)[C@H](CO)NC1=O
# B19: (4-(Aminomethyl)benzoic acid)-IC+SRS-((tBu)A)-PPI-(Pen)+IPD-NH2 (peptide)
# peptide: [4Amb]ICSRS[tBuAla]PPI[Pen]IPD-NH2
# modifications: disulfide 3-11; N-terminus assumed
# SMILES: CC[C@H](C)[C@H](NC(=O)c1ccc(CN)cc1)C(=O)N[C@H]1CSSC(C)(C)[C@@H](C(=O)N[C@H](C(=O)N2CCC[C@H]2C(=O)N[C@@H](CC(=O)O)C(N)=O)[C@@H](C)CC)NC(=O)[C@H]([C@@H](C)CC)NC(=O)[C@@H]2CCCN2C(=O)[C@@H]2CCCN2C(=O)[C@H](CC(C)(C)C)NC(=O)[C@H](CO)NC(=O)[C@H](CCCNC(=N)N)NC(=O)[C@H](CO)NC1=O
# Biological target: T1, Recombinant human MASP1 enzyme …
# Test: cell-based or functional assay
row,Binder,human MASP1 IC50 [nM]
1,B1,3.8
2,B2,5
3,B3,16
4,B4,4.4
5,B5,7.1
6,B6,7
7,B7,3.8
8,B8,4.2
9,B9,15
10,B10,13
11,B11,5.5
12,B12,6.3
13,B13,4.2
14,B14,4.4
15,B15,11

# Biological target: T2, recombinant human MASP1 active protease …
# Test: cell-based or functional assay
row,Binder,human MASP1 IC50 [nM]
1,B16,1.9
2,B17,1.9

# Biological target: Recombinant human MASP2 enzyme (fragment corresponding to amino acids 297-686, C-terminal His Tag) (human, UniProt O00187 297-686)
# Sequence (O00187 other isoform, or with tags, fused parts or gaps limits assumed): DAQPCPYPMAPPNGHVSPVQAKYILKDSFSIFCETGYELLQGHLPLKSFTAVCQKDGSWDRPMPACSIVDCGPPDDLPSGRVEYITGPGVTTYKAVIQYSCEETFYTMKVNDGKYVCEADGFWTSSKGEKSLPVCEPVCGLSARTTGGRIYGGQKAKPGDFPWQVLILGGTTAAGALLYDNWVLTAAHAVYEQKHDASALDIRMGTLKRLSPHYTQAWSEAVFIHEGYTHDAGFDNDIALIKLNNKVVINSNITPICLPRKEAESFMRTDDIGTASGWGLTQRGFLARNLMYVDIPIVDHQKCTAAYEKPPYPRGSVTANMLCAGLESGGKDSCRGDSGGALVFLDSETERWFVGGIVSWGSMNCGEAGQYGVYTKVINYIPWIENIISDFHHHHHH
# Test: cell-based or functional assay
row,Binder,human MASP2 IC50 [nM]
1,B1,140
2,B18,210
3,B19,8.1
4,B7,210
